{"source": "patent US20190083491", "about": "“SMALL MOLECULES INHIBITORS OF RAD51” (The University of Chicago, published 2019)", "biological_target": "RAD51 (Homo sapiens, UniProt Q06609 Q06609:2-339)", "sequence (Q06609 2-339, one chain of several)": "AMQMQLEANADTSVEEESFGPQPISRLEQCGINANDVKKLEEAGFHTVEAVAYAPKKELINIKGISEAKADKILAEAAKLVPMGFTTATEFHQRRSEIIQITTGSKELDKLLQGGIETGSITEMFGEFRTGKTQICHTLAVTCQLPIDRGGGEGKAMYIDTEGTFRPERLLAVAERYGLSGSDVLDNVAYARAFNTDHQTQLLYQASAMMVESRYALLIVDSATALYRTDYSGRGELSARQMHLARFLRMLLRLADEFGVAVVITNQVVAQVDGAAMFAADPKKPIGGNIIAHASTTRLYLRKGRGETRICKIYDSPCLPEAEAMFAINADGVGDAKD", "assay": "FP; 0.2 uM RAD51, 2.22 nM ssDNA, 2 mM ATP, 10 mM MgCl2, 30 mM NaCl, pH 7.5, 37 C; binding used to measure compound effects, no Kd given", "conditions": "tags: human RAD51, purified as previously described (source inferred); label: 5'-Alexa488", "method": "In each well, RAD51 protein was combined with reaction buffer and varying concentrations of compound in DMSO in an initial volume of 40 μl and incubated at 37° C. for 40 minutes. […] The final reaction contained 4% DMSO, 0.2 μM RAD51, 30 mM NaCl, 2% glycerol, and 2.22 nM ssDNA substrate."}
{"binder": "TTTTTTTTTTTTTTTTTTTTTTTTTTTTTTTTTTTTTTTTTTTTT (ssDNA)", "note": "[Alexa488-oligo-dT45]", "values": [{"measurement": "binding result", "value": "binds"}]}
